# From patent US11447754B2, “In vitro methods of chemical conversion using non-stereospecific glutathione lyases” (WISCONSIN ALUMNI RESEARCH FOUNDATION, priority 2017, dated 2022)
# Where a chain is given by its changes, count along the chain named. Numbers in names are those of the source.
# B1: SYK6GSTNu: Nu-class GST from Sphingobium sp. SYK-6 encoded by SLG_04120, SEQ ID NO:22 (protein)
# chain: MADSDPSMNQPTGYVPPKVWTWDKENGGQFSNINAPTAGARQDVTLPVGEHPIQLYSLGTPNGQKVTIMLEELLAAGFDAEYDAWLIKIYTGEQFGSDFVAINPNSKIPAMMDHGLDPPLRLFESGSMLVYLAEKFGAFLPTEIRKRTETFNWLMWQMGSAPFVGGGFGHFYAYAPFKIEYAIDRYAMETKRQLDVLDKNLADREFMIGDEITIADFAIFPWYGSIMRGGYNAQEFLSTHEYRNVDRWVTQLSERTGVKRGLLVNSAGRPGGGIAERHSAADLDASIKAAEQEAAKTEA
# modifications: Sphingobium sp. SYK-6
# B2: Novosphingobium aromaticivorans LigE (Saro_2405), wild type (Novosphingobium aromaticivorans DSM 12444) (protein)
# chain: MAANNTITFYDLALSTGATISPFVWATKYALKHKGFDLDVVPGGFTGILERTGGKTERLPAIVDDGEFVLDSWGIVEYLDAKYPDRPVLIPHESVAATLKALDNWFWNAAVGPWMFCFCQDYRDLSLPQDHEYVTHSREKMLGRKLEEVQAGREERLPKISAALEPLRAALAQHQWLGGSSPNYADYRIMGGILFTASVCKTPVLANDDPLRDWIERCLDLYGGLGRHPGLFPLFGLEQREGDPDLFNRAAGQGGIYKRNTGPESTRAETQRITEGMKK
# notes: E. coli expressed
# B3: Novosphingobium aromaticivorans BaeA, wild type, heterodimer of Saro_2872 (SEQ ID NO:40) and Saro_2873 (SEQ ID NO:42) (Novosphingobium aromaticivorans DSM … (protein)
# chain 1: MSALLYHGEPNGASLTVLAALAETGLDIECRRIDLLAGERHSLPGIVDPVALDLSIEGEGPVLVIDGEAMTESVFLAQYLDEAAGGVGLQPTDAYARWEMMMWCRQITERLSPAAALLGNLATSQSAIAAIPAEDFAILAARIVSDDLRERWQALNDDAVNAAQVADSETKVAAAVDRCEKQLGDGREWLMGTFSIADLVTYSWLAGMEPLRPAAFADAPLVKAWLARTAARPCVQAALARATISEPLRAWAPGPEINRWG
# chain 2: MDEVSLYHWEPNANSGKPMLALMEKGVPFSSHYIDMLQFDQHKPEYLAINPQGTIPAMTHNGQVLTESTAIMEYVNDRFDGPDLMPADAQDRWRVRWWMKFMDQWLGPSFSMIGWSVFVGPMVRQRDPAELAAAIDRIPLPERRTAWRKAINGDFSESEMAESRRRVGLGIAKLEEELGKRPYVGSNQYSLADINIFNSTYSLPISQPDLAGKDRTPNIMRWLKRVYTREAVKKTWAMGKTDLAHRYGLIMAEIEG
# notes: His8 tag removed by TEV, SAIAG left on the N-terminus
# B4: Novosphingobium aromaticivorans BaeA (Saro_2872/Saro_2873 heterodimer, SEQ ID NO:40/SEQ ID NO:42) variant 2:S14A (Ser14 of Saro_2872 to Ala) (Novosphingobium … (protein)
# chain 1: B3 chain 1 with S14A
# chain 2: B3 chain 2
# notes: His8 tag on Saro_2872 removed by TEV, SAIAG left on N-terminus
# B5: BaeA (3:N14A): BaeA variant with Asn14 of Saro_2873 mutated into Ala (protein)
# chain: B3 chain 2 with N14A
# B6: Saro_2872: polypeptide from Novosphingobium aromaticivorans, SEQ ID NO:40; subunit of BaeA (protein)
# chain: B3 chain 1
# modifications: Novosphingobium aromaticivorans
# notes: subunit of BaeA
# B7: Novosphingobium aromaticivorans BaeA (Saro_2872/Saro_2873 heterodimer, SEQ ID NO:40/SEQ ID NO:42) variant 3:S15A (Ser15 of Saro_2873 to Ala) (Novosphingobium … (protein)
# chain 1: B3 chain 1
# chain 2: B3 chain 2 with S15A
# notes: His8 tag on Saro_2873 removed by TEV
# Assays:
# [1] = Kinetics analysis of GS-HPV cleavage (conversion into HPV), β(S)-stereoisomer; format: biochemical
# Description: Kinetics analysis of GS-HPV cleavage. The Reaction Buffer (RB) consisted of 25 mM Tris-HCl (pH 8.5) and 25 mM NaCl. The β(R)- and β(S)-stereoisomers of GS-HPV were separately generated by incubating racemic MPHPV (0.46 mM) in RB with 5 mM reduced glutathione (GSH) and either 38 μg/mL LigF1 or 36 μg/mL LigE, respectively, for several h. This sample, containing a single GS-HPV stereoisomer, guaiacol, and the unreacted MPHPV stereoisomer, was diluted with RB to achieve the desired concentration of GS-HPV for the time course reaction (0.005, 0.011, 0.022, 0.096, or 0.193 mM). An additional 5 mM GSH (dissolved in RB) was added prior to initiation of each time course. […] Assays were performed at 25° C., and at specified time points, 300 μL of the reaction was removed and combined with 100 μL 1 M HCl (Acros Organics; Geel, Belgium) to stop the reaction before HPLC analysis to quantify HPV formed.
# HPLC analysis. After extracellular aromatics were identified using LC-MS, routine analysis and quantification of aromatics were performed using an Ultra AQ C18 5 μm column (Restek, Bellefonte, Pa.) attached to a System Gold HPLC (Beckman Coulter, Brea, Calif.) with running buffers and chromatography conditions described in FIG. 14. […]
# [2] = substrate: COc1cc(C(=O)[C@@H](CO)Oc2ccccc2OC)ccc1O; assay: Kinetics of the enzymatic cleavage of β(R)-MPHPV by LigE; format: biochemical, Novosphingobium aromaticivorans; conditions: other: β(R)-MPHPV into GS-HPV, 70 nM enzyme (monomer), 5 mM GSH, pH 8.0, 25° C.
# From the text: Enzyme purifications. Genes Saro_2595, E. coli yghU, E. coli yfcG, and SLG_04120 from Sphingobium sp. SYK-6 (codon-optimized for expression in E. coli) were individually cloned into plasmid pVP302K (Gall and Ralph et al. 2014) so that transcripts from the plasmids would be translated into proteins containing a His8-tag connected to the N-terminus via a tobacco etch virus (TEV) protease recognition site. Recombinant proteins were expressed in E. coli B834 (Wood 1966, Doherty et al. 1995) containing plasmid pRARE2 (Novagen, Madison, Wis.) grown for ˜24 h at 27° C. in ZYM-5052 Autoinduction Medium (Studier 2005) containing kanamycin and chloramphenicol. Recombinant proteins were purified essentially as described previously (Gall and Kim et al. 2014); see below for modifications to the procedure. After removal of His8-tags using TEV protease, recombinant proteins retained a Ser-Ala-Ile-Ala-Gly-peptide on their N-termini, derived from the linker between the protein and the TEV protease recognition site. Recombinant LigE and LigF1 from N. aromaticivorans were purified as previously described (Gall and Ralph et al. 2014).
# (§1) Kinetics of the enzymatic cleavage of β(R)-MPHPV. Various concentrations of racemic MPHPV (equal amounts of the β(S)- and β(R)-stereoisomers) were combined with 5 mM GSH in RB. At time zero, 100 μL of a given enzyme in RB+5 mM GSH was combined with 1000 μL of the racemic MPHPV/GSH sample at 25° C. (both samples were equilibrated to 25° C. before mixing). […] At specified time points, 200 μL of a reaction was removed and combined with 40 μL of 1 M HCl (Acros Organics) to stop the reaction before HPLC analysis to quantify GS-HPV formed. […]
# (§2) HPLC analysis. Analysis and quantification of aromatic compounds were performed using an Ultra AQ C18 5 μm column (Restek) attached to a System Gold HPLC (Beckman Coulter) with running buffers and methods described in Example 1. The eluent was analyzed for light absorbance between 191 and 600 nm, and absorbances at 280 nm were used for quantification of aromatic metabolites by comparing peak areas to those of standards.
# [3] = substrate: COc1cc(C(=O)[C@@H](CO)Oc2ccccc2OC)ccc1O; assay: Kinetics of the enzymatic cleavage of β(R)-MPHPV by BaeA; format: biochemical, Novosphingobium aromaticivorans; conditions: other: β(R)-MPHPV into GS-HPV, 18 nM dimeric enzyme, 5 mM GSH, pH 8.0, 25° C.
# Description: (§3) Expression and purification of recombinant enzymes. Recombinant proteins were expressed using the plasmids described above in E. coli B834 containing plasmid pRARE2 (Novagen) grown for ˜25 hours at 25° C. in ZYM-5052 Autoinduction Medium containing kanamycin and chloramphenicol. Recombinant proteins were purified using a Ni^2+-NTA column as described in Example 1 above, except using gravity-flow columns instead of an FPLC system. After removal of His8-tags using Tev protease, recombinant proteins retained a Ser-Ala-Ile-Ala-Gly-peptide on their N-termini, derived from the linker between the protein and the Tev protease recognition site. Recombinant LigF1 was purified as previously described (Gall and Ralph et al. 2014).
# Kinetics of the enzymatic cleavage of β(R)-MPHPV. Various concentrations of racemic MPHPV (equal amounts of the β(S)- and β(R)-stereoisomers) were combined with 5 mM GSH in RB. At time zero, 100 μL of a given enzyme in RB+5 mM GSH was combined with 1000 μL of the racemic MPHPV/GSH sample at 25° C. (both samples were equilibrated to 25° C. before mixing). Final concentrations of β(R)-MPHPV in each reaction were 0.0045, 0.010, 0.017, 0.068, or 0.13 mM. Final enzyme concentrations were 18 nM BaeA, 23 nM BaeA (2:S14A), 22 nM BaeA (3:S15A), 24 nM BaeA (2:S14A/3:S15A), 98 nM BaeA (3N14A), or 70 nM LigE (Saro_2405) (all concentrations are for the dimeric enzyme, except for LigE, which is the concentration of the monomer). At specified time points, 200 μL of a reaction was removed and combined with 40 μL of 1 M HCl (Acros Organics) to stop the reaction before HPLC analysis to quantify GS-HPV formed. […]
# as §2
# [4] = substrate: COc1cc(C(=O)[C@@H](CO)Oc2ccccc2OC)ccc1O; assay: Kinetics of the enzymatic cleavage of β(R)-MPHPV by BaeA (2:S14A); format: biochemical, Novosphingobium aromaticivorans; conditions: other: β(R)-MPHPV into GS-HPV, 23 nM dimeric enzyme, 5 mM GSH, pH 8.0, 25° C.
# From the text: (§4) To generate mutant 2:S14A, pVP302K/2873-H2872 was amplified by kinase phosphorylated primers “Saro2872-S14A_R” and “Saro2872-S14A_F”. To generate mutant 3:S15A, pVP302K/H2873-2872 was amplified by kinase phosphorylated primers “Saro2873-S15A_R” and “Saro2873-S15A_F”. To generate mutant 3:N14A, pVP302K/2873-H2872 was amplified by kinase phosphorylated primers “Saro2873-S15A_R” and “Saro2873-N14A_F”. These linear fragments were separately circularized using T4 DNA ligase to generate plasmids pVP302K/2873-H2872(S14A), pVP302K/H2873(S15A)-2872, and pVP302K/2873(N14A)-H2872, respectively.
# as §3
# as §1, with “RB.” for “RB. At time zero, 100 μL of a given enzyme in RB+5 mM GSH was combined with 1000 μL of the racemic MPHPV/GSH sample at 25° C. (both samples were equilibrated to 25° C. before mixing).”
# as §2
# [5] = Kinetics of the enzymatic cleavage of β(R)-MPHPV into GS-HPV; format: biochemical
# Description: Kinetics of the enzymatic cleavage of β(R)-MPHPV. Various concentrations of racemic MPHPV (equal amounts of the β(S)- and β(R)-stereoisomers) were combined with 5 mM GSH in RB. At time zero, 100 μL of a given enzyme in RB+5 mM GSH was combined with 1000 μL of the racemic MPHPV/GSH sample at 25° C. (both samples were equilibrated to 25° C. before mixing). Final concentrations of β(R)-MPHPV in each reaction were 0.0045, 0.010, 0.017, 0.068, or 0.13 mM. Final enzyme concentrations were 18 nM BaeA, 23 nM BaeA (2:S14A), 22 nM BaeA (3:S15A), 24 nM BaeA (2:S14A/3:S15A), 98 nM BaeA (3N14A), or 70 nM LigE (Saro_2405) (all concentrations are for the dimeric enzyme, except for LigE, which is the concentration of the monomer). At specified time points, 200 μL of a reaction was removed and combined with 40 μL of 1 M HCl (Acros Organics) to stop the reaction before HPLC analysis to quantify GS-HPV formed. Control experiments were allowed to proceed for several hours to ensure that only the β(R)-MPHPV in the reaction mixtures was being reacted with in these experiments.
# as §2
# [6] = substrate: COc1cc(C(=O)[C@@H](CO)Oc2ccccc2OC)ccc1O; assay: Kinetics of the enzymatic cleavage of β(R)-MPHPV by BaeA (3:S15A); format: biochemical, Novosphingobium aromaticivorans; conditions: other: β(R)-MPHPV into GS-HPV, 22 nM dimeric enzyme, 5 mM GSH, pH 8.0, 25° C.
# From the text: as §4, §3
# as §1, with “RB.” for “RB. At time zero, 100 μL of a given enzyme in RB+5 mM GSH was combined with 1000 μL of the racemic MPHPV/GSH sample at 25° C. (both samples were equilibrated to 25° C. before mixing).”
# as §2
molecule,measurement,setting,value
B1,"kcat/KM with the β(S)-isomer, fold higher than with the β(R)-isomer",[1],~10 fold
B2,Km,[2],7 ± 1 µM
same,kcat,[2],0.68 ± 0.06 s⁻¹
same,kcat/Km,[2],100000 ± 20000 M⁻¹ s⁻¹
B3,Km,[3],20 ± 3 µM
same,kcat,[3],2.9 ± 0.3 s⁻¹
same,kcat/Km,[3],150000 ± 30000 M⁻¹ s⁻¹
B4,Km,[4],22 ± 3 µM
same,kcat,[4],2.8 ± 0.2 s⁻¹
same,kcat/Km,[4],130000 ± 20000 M⁻¹ s⁻¹
B5,"KM, fold higher than wild-type BaeA",[5]; β(R)-MPHPV,~12.5 fold
same,"kcat, fold lower than (wild-type) BaeA",[5]; β(R)-MPHPV,~20 fold
B6,activity of the Saro_2872 subunit in BaeA relative to the Saro_2873 subunit,[5]; inferred from the 3:N14A variant,< 5%
B7,Km,[6],100 ± 20 µM
same,kcat,[6],2.4 ± 0.3 s⁻¹
same,kcat/Km,[6],23000 ± 6000 M⁻¹ s⁻¹
